# Measurements as given in patent US20070166314A1 (AstraZeneca / MedImmune, published 2007).
# B1: Eph099B-233.152 (ATCC PTA-5194) (antibody, V domains shown)
# VH: EVKLVESGGGLVQPGGSLSLSCAASGFTFTDYSMNWVRQPPGKALEWLGFIRNKANDYTTEYSASVKGRFTISRDNSQSILYLQMNALRAEDSATYYCVRYPRYHAMDSWGQGTSVTVSS
# VL: DIVLTQSPATLSVTPGDSVNLSCRASQSISNNLHWYQQKSHESPRLLIKYVFQSISGIPSRFSGSGSGTDFTLSINSVETEDFGMYFCQQSNSWPLTFGAGTKLELK
# notes: Mouse hybridoma antibody (SJL mice); detected with anti-mouse IgG
# B2: Eph099B-208.261 (ATCC PTA-4573) (antibody, V domains shown)
# VH: QVQLQQPGAELVKPGASVKLSCKASGYTFTSYWMHWVKQRPGQGLEWIGMIHPNSGSTNYNEKFKSKATLTVDKSSSTAYMRLSSLTSEDSAVYYCARGGNMVGGGYWGQGTTLTVSS
# VL: QIVLTQSPALMSASPGEKVTMTCSASSSVSYMYWYQQKPRSSPKPWIYLTTNLASGVPARFSGSGSGTSYSLTISSMEAEDAATYYCQQWSSNPFTFGSGTKLEIR
# notes: Mouse hybridoma antibody (SJL mice)
# Legend:
# [1] = target: T1, EphA2-Fc (extracellular domain of human EphA2 linked to human IgG1 constant region) (human, UniProt P29317 24-537); assay: BIACORE, EphA2-Fc immobilized on a CM5 chip, double-referenced; undiluted hybridoma supernatant
# T1 construct: extracellular domain; Used as immunogen, ELISA antigen and BIACORE ligand; not shown: human IgG1 constant region
# Experimental: EphA2-Fc was immobilize to a surface on a CM5 sensorchip using a standard amine (70 μl of a 1:1 mix of NHS/EDC) coupling chemistry. Briefly, a 400 nM solution of EphA2-Fc in 10 mM NaOAc, pH4, was then injected over the activated surface to a density of 1000-1100 RU's. Unused reactive esters were subsequently “capped” with a 70 μinjection of 1M Et-NH2. Similarly, an activated and “capped” control surface was prepared on the same sensor chip without protein to serve as a reference surface.
# A 250 μl injection of each of the EphA2 hybridoma supernatants was made over both the EphA2-Fc and control surfaces, and the binding responses were recorded. These supernatants were used undiluted. Following each injection, at least 10 min. of dissociation phase data was collected. Purified EphA2 monoclonal antibody EA2 was prepared to serve as a positive control (at 1 μg, 5 μg and 25 μg per 250 μl of growth medium). […] Control injections of growth medium across these surfaces were also made. Following each binding cycle, the EphA2-Fc surface was regenerated with a single 1 min. pulse (injection) of 1M NaCl-50 mM NaOH.
# [2] = target: T2, EphA2 on cells (MDA-MB-231, MCF-10A, MCF-7 transfected with human EphA2) (human, UniProt P29317 24-976); assay: immunofluorescence, 10 µg/ml at 4 C, MDA-MB-231 and MCF-10A cells
# T2 construct: whole, on cells; MDA-MB-231 and MCF-10A carry endogenous EphA2 and no species is stated for them
# Experimental: The epitopes of EphA2 antibodies were characterized. […] EA2 preferentially binds EphA2 on transformed cells (FIG. 16D). […] Treatment of non-transformed MCF-10A cells with 4 mM EGTA for 20 min. dissociated the cells. EA2 bound EphA2 on the EGTA dissociated cells but not the untreated cells (FIGS. 17A-17B).
# [3] = target: T1, EphA2-Fc (extracellular domain of human …); assay: competitive ELISA on EphA2-Fc; competitor: labeled EA2; x axis is the ratio of unlabeled to labeled antibody
# Excerpt: Supernatants from bulk culture hybridomas were screened for immunoreactivity against EphA2 (Table 6, column 4) using standard molecular biological techniques (e.g., ELISA immunoassay). Supernatants were further screened for the ability to inhibit an EphA2 monoclonal antibody (EA2; ATCC deposit no. PTA-4380; see co-pending U.S. patent application Ser. No. 10/436,783, entitled “EphA2 Agonistic Monoclonal Antibodies and Methods of Use Thereof” filed May 12, 2003) from binding to EphA2. […] Both antibodies could decrease the amount of labeled EA2 binding to EphA2-Fc with increasing concentrations of unlabeled antibody added. Additionally, many of the other antibodies could inhibit EA2 binding to EphA2 as well (Table 6, column 3).
# T1 sequence (P29317 24-537): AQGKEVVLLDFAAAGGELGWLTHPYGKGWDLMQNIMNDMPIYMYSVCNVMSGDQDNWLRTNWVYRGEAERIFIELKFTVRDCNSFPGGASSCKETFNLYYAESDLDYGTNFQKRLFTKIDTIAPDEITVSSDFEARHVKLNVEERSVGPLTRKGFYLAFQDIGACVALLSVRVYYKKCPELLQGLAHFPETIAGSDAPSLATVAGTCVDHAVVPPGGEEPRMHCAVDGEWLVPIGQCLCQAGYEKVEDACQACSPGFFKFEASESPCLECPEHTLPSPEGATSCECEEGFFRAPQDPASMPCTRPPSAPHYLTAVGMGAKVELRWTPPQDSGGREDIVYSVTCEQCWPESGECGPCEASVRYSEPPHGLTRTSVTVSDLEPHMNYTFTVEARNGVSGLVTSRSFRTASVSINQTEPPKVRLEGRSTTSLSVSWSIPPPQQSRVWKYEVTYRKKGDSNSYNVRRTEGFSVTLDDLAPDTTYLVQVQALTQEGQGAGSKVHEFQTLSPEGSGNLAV
# T2 sequence (P29317 24-976): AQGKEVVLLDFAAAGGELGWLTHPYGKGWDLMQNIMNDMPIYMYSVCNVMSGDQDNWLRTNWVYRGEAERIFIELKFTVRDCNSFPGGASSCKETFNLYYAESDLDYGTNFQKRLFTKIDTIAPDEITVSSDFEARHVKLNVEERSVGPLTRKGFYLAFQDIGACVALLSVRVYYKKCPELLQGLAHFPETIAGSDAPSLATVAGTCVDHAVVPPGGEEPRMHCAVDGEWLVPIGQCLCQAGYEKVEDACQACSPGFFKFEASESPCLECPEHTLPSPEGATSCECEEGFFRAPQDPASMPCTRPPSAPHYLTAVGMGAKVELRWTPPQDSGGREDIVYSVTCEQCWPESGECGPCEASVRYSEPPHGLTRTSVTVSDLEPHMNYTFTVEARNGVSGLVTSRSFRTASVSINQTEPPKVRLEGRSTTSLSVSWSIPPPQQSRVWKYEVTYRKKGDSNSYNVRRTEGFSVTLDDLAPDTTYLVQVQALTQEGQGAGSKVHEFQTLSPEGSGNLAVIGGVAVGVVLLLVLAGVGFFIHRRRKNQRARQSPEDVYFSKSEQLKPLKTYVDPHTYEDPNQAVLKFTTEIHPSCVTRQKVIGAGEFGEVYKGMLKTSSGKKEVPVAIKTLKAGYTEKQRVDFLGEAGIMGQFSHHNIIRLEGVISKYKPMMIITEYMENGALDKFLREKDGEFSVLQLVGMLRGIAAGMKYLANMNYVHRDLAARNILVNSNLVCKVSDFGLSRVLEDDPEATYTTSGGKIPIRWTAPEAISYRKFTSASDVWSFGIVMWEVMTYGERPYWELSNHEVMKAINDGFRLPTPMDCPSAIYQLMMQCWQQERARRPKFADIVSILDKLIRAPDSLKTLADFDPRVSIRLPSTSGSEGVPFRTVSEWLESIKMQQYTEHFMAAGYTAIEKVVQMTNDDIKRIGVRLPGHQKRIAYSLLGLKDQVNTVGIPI
Binder,binding result [1],binding result [2],binding result [3]
B1,binds,binds,–
B2,–,–,binds
